The numbers were not newly measured in paper PMC5431918 (Scientific Reports, 2017), which cites them from elsewhere.

On this series, the source says:
As PAC1, VPAC1 and VPAC2 mRNAs were detected in a rat insulinoma cell line with PAC1 binding prevailing over that of VPAC1 and VPAC2[23], the PAC1 receptor seemed to be a promising alternative for targeting insulinomas. The natural mammalian ligands at the PAC1 receptor are PACAP38 and the truncated form PACAP27. They bind to PAC1, ...

On to “PACAP38: natural mammalian ligand at the PAC1 receptor; non-selective PAC1/VPAC1/VPAC2 ligand”, for which the Stability in plasma result was “unstable in plasma”.

In the case of “PACAP27: truncated form of PACAP38; non-selective PAC1/VPAC1/VPAC2 ligand”, the Stability in plasma result is given as “unstable in plasma”.
